Test results from patent US20070037156.

Tested on: gelatin

Substance	MMP-9 activity by zymography (gelatin in the polyacrylamide gel)
279Arg rare variant of MMP-9 (matrix metalloproteinase-9)	Activity in both lanes 1 and 2 of FIG. 4 is similar
279Gln common variant of MMP-9 (matrix metalloproteinase-9)	Activity in both lanes 1 and 2 of FIG. 4 is similar
